Assay results as given in article PMC3223566.
Each block holds one binder with its values, some of them ahead of it.

Tests used:
[1] = target: RNAPΔRpo4/7, ten-subunit RNAP subassembly lacking Rpo4/7 (M. jannaschii) (UniProt Q58443)
[2] = target: M. jannaschii RNA polymerase, wild type, reconstituted from 12 recombinant subunits (M. jannaschii) (UniProt Q58443)
[3] = target: M. jannaschii RNA polymerase, wild type, reconstituted from 12 recombinant subunits (M. jannaschii) (UniProt Q58443); assay: native gel or EMSA; competition in the PIC: Spt4/5 (0, 16, 32, 137 μM) added to preformed PICs (DNA, TBP, TFB, RNAP) with fluorescently labeled TFE (0.75 μM)
[4] = target: M. jannaschii RNA polymerase, wild type, reconstituted from 12 recombinant subunits (M. jannaschii) (UniProt Q58443); remark: listed apart in the source
[5] = target: M. jannaschii RNA polymerase, wild type, reconstituted from 12 recombinant subunits (M. jannaschii) (UniProt Q58443); assay: native gel or EMSA; competition in the TEC: RNAP (0.21 μM), NTS (20 μM), TS (15 μM), RNA (68 μM), TFE^G133*DL549 (0.74 μM), Spt4/5 or Spt4/5^A4R (1, 2.5, 15 μM)
[6] = target: M. jannaschii RNA polymerase, wild type, reconstituted from 12 recombinant subunits (M. jannaschii) (UniProt Q58443); remark: listed apart in the source
[7] = target: M. jannaschii RNA polymerase, wild type, reconstituted from 12 recombinant subunits (M. jannaschii) (UniProt Q58443); assay: native gel or EMSA; competition: Spt4/5 or Spt4/5^A4R (0.33, 1, 7.5, 25 μM) added to a preformed complex of free RNAP and TFE^133*DL549 (0.74 μM)

stimulation of promoter-directed transcription by TFE (8 μM) [1]: < 1.2 fold
stimulation of promoter-directed runoff transcription by TFE (0, 0.32, 8 μM) [2]: 5 fold
B1: TFE (archaeal transcription initiation factor E), unlabeled wild type (natural protein)
chain: MLNDPLVQEVLFNIFEGDEKGFEVIDVLLEKGETTEEEIAKELGVKLNVVRKLLYKLYDARLVDYKRWKDEDTNWYSYTWLPTLEKLPYVVKKKINELIKDLEKKLEFEKNNMFFFCPNCNVRFTFEEAMDYGFSCPGCGNMLQEFDNSELIKDLEEQIKFLKEELKNNPFLK

IC50 [3]: 29000 nM
inhibition of transcript synthesis in promoter-directed transcription, Spt4/5 at 55.2 μM [4]: > 10 fold
IC50 [5]: 790 nM
inhibition of promoter-directed runoff transcription by minimal complexes (DNA, TBP, TFB, RNAP; no TFE) [6]: 9.6 µM
IC50 [7]: 550 nM
B2: Spt4/5, transcription elongation factor, wild type (complex)
chain 1: MRACLKCKYLTNDEICPICHSPTSENWIGLLIVINPEKSEIAKKAGIDIKGKYALSVKE
chain 2: MIFAVRTMVGQEKNIAGLMASRAEKEQLDVYSILASESLKGYVLVEAETKGDVEELIKGMPRVRGIVPGTIAIEEIEPLLTPKKIIENIEKGDVVEIIAGPFKGERAKVIRVDKHKEEVTLELENAAVPIPITLPVEGVKIVSKHKD
